Laboratory results: patent US20240076386A1 (Pfizer, published 2024)

What was measured:
[1] = molecular target: T1, cynomolgus monkey E-selectin, cell-surface expressed (cynomolgus monkey, UniProt P16581 22-610 (human entry)); experiment: cell-based or functional assay
T1 chain: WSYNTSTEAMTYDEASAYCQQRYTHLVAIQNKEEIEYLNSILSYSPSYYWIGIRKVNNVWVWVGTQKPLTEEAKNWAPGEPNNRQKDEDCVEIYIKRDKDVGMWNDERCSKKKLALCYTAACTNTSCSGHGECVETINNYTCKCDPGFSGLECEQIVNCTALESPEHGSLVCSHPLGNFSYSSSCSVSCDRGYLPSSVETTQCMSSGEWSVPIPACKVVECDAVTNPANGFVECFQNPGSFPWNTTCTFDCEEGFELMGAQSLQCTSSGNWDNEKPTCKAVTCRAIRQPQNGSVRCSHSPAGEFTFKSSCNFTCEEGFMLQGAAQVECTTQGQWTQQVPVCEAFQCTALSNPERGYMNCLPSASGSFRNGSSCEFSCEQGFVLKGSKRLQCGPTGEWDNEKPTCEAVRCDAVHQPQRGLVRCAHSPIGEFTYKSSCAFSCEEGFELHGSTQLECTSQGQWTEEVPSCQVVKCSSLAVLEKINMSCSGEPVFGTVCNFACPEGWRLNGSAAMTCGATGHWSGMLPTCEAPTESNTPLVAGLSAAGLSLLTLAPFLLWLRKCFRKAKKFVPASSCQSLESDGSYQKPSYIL

[2] = molecular target: T2, recombinant histidine-tagged human E-selectin (Sino Biologicals; 13025-H08H) (human, UniProt P16581 22-556); experiment: cell-based or functional assay
T2 sequence (looked up): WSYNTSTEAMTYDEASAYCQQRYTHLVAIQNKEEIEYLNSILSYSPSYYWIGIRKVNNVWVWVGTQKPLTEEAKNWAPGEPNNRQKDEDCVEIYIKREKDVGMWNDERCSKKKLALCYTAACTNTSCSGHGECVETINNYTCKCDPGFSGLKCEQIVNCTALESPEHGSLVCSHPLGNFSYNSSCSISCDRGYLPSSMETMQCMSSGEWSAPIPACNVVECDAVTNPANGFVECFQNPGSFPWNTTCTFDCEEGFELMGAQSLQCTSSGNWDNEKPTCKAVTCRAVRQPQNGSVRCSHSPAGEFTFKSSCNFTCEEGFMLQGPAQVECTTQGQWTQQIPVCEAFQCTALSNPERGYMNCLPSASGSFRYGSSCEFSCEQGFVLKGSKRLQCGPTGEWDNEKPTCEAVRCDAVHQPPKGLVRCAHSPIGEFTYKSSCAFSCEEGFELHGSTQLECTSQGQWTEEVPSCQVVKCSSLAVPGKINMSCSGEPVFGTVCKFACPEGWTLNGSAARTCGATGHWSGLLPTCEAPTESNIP

[3] = molecular target: T3, human E-selectin, cell-surface expressed (human, UniProt P16581 22-610); experiment: cell-based or functional assay
T3 sequence: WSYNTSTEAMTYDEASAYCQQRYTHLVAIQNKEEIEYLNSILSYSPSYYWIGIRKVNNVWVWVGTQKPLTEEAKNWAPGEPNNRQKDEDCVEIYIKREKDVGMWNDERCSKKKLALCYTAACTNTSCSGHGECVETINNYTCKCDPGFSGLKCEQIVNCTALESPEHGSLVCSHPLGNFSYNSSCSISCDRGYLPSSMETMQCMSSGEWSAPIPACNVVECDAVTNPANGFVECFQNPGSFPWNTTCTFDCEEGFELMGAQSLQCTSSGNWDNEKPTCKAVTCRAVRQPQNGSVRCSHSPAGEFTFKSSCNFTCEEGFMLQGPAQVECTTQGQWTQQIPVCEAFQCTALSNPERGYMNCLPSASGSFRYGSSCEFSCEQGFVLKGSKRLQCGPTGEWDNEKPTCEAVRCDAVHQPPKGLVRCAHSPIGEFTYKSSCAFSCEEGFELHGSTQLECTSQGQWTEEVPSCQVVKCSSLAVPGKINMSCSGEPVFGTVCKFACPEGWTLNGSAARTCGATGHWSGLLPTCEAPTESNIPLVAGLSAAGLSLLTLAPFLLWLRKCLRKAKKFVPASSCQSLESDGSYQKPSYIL

[4] = molecular target: T2, recombinant histidine-tagged human …; experiment: neutralization of sialyl Lewis A ligand binding, soluble recombinant protein, competition ELISA
Experimental: (§1) Recombinant histidine-tagged E-selectin; cynomolgus monkey E-selectin (Sino Biologicals; 190169-C08H) and human E-selectin (Sino Biologicals; 13025-H08H) stock solutions were prepared to a final concentration of 3 μg/mL in phosphate buffered saline (PBS) without calcium and magnesium. One hundred μL per well of the diluted recombinant E-selectin protein was added into a Ni-NTA HisSorb 96 well plate (Qiagen, 35061) and plates were incubated on an orbital shaker at room temperature for 2 hours. Sialyl Lewis A polyacrylamide biotin, a synthetic E-selectin ligand (GlycoTech corporation 01-044), was conjugated to streptavidin HRP (horse radish peroxidase) (Ultra Streptavidin HRP, Thermo Scientific N504) and diluted in assay diluent containing 2 mM calcium chloride (BD OptEIA buffer; BD Biosciences, 555213).

[5] = molecular target: T4, recombinant histidine-tagged cynomolgus monkey E-selectin (Sino Biologicals; 190169-C08H) (cynomolgus monkey, UniProt A0A2K5U7H9 22-554); experiment: as above
T4 construct: also called recombinant cynomolgus monkey E-selectin
T4 sequence: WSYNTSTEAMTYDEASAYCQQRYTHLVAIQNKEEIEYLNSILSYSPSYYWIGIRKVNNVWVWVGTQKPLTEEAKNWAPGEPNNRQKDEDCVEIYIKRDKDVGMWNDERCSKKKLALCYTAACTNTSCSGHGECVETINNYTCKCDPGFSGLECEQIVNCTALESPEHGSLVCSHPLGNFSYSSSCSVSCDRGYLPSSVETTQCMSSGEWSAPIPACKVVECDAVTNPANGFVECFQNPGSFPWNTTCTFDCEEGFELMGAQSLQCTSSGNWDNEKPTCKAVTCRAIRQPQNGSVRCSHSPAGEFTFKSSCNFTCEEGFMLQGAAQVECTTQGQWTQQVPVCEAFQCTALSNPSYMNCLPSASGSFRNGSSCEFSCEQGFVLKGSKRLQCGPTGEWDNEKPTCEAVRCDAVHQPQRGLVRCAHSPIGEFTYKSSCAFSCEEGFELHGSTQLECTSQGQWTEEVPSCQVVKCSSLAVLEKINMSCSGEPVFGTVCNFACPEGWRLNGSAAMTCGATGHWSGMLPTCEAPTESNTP
Experimental: as §1

B1: optimized anti-E-selectin antibody 1444 (antibody, human IgG1, kappa, V domains shown)
VH: EVQLVESGGGLVQPGGSLRLSCAASGYAIRSAYMHWVRQAPGKGLEWVARIDPANGNTIYVDSVTGRFTISADNAKNSAYLQMNSLRAEDTAVYYCAMDLYSTSEYWGQGTLVTVSS
VL: DIQMTQSPSSLSASVGDRVTITCKTSQNIERYLNWYQQKPGKAPKLLIYAASSLQSGVPSRFSGSGSGTDFTLTISSLQPEDFATYFCLQDNAWPLTFGQGTKVEIKR
notes: effector-null human IgG1, kappa
For B1, the “Flow adhesion neutralization of HL-60 cells, CHO cells, cynomolgus monkey E-selectin, IC50” value [1] was 4.32 to 4.35 nM, the “Neutralization of Human Neutrophils, CHO cells, cynomolgus E-selectin, flow, IC50” value [1] was 9.45 to 16.3 nM and the “Static adhesion neutralization of HL-60 cells, CHO cells, cynomolgus monkey E-selectin, IC50” value [1] was 3.84 nM. The “Flow adhesion neutralization of HL-60 cells, soluble recombinant human E-selectin, IC50” value [2] was 13.3 to 15.9 nM, the “Neutralization of SCD patient cells, soluble human recombinant protein, flow, IC50 (mean)” value [2] was 12.4 nM and the “Flow adhesion neutralization of HL-60 cells, CHO cells, human E-selectin, IC50” value [3] was 4.25 to 4.56 nM. The “Neutralization of Human Neutrophils, CHO cells, human E-selectin, flow, IC50” value [3] was 2.87 to 4.65 nM, the “Static adhesion neutralization of HL-60 cells, CHO cells, human E-selectin, IC50” value [3] was 3.36 to 4.7 nM and the IC50 [4] was 2.87 to 3.01 nM. The IC50 [5] was 2.39 to 2.91 nM.
